Biological target: T1, IGF1R (IGF1 receptor), antigen coated on the ELISA plate (UniProt P08069 31-932, limits assumed)
T1 construct: Construct not described; It may be the same histidine-tagged reagent as m8
Experiment: ELISA, antigen coated at 2 µg/mL, antibody serially diluted, anti-kappa or anti-lambda HRP detection (FIG. 10)
Protocol: The absorbance at 450 nm was measured using a microtiter plate reader.

T1 sequence (P08069 31-932 limits assumed): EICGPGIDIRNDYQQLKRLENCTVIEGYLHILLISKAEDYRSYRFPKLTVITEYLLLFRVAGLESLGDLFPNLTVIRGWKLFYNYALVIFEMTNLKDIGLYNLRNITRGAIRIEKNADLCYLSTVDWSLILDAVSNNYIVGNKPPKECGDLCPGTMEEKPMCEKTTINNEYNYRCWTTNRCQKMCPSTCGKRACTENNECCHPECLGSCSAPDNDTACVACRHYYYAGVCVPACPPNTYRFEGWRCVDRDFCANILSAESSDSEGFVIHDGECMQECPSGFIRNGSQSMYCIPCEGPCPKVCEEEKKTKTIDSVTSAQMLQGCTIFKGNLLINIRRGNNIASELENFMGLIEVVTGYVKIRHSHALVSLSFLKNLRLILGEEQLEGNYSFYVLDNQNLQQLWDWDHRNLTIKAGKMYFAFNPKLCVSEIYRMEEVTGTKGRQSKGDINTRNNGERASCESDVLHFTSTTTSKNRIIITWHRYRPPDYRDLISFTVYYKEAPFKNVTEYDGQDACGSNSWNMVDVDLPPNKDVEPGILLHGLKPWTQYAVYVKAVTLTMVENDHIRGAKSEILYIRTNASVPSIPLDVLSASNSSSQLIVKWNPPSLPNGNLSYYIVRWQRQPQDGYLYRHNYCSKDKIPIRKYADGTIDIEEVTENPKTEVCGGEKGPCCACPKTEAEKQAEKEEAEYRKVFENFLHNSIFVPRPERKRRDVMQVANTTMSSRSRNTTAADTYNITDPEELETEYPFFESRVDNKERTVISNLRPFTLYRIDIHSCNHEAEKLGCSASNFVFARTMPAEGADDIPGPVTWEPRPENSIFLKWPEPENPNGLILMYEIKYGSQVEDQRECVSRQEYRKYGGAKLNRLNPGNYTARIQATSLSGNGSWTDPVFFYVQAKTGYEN

- binding result: no binding
B1: anti-EGFR conventional antibody (monospecific bivalent, kappa light chain; parental arm of iMab-EI) (antibody, V domains shown)
VH: QVQLQESGPGLVKPSETLSLTCTVSGGSVSSGDYYWTWIRQSPGKGLEWIGHIYYSGNTNYNPSLKSRLTISIDTSKTQFSLKLSSVTAADTAIYYCVRDRVTGAFDIWGQGTMVTVSS
VL: DIQMTQSPSSLSASVGDRVTITCQASQDISNYLNWYQQKPGKAPKLLIYDASNLETGVPSRFSGSGSGTDFTFTISSLQPEDIATYFCQHFDHLPLAFGGGTKVEIK
notes: Conventional IgG with kappa light chain; constant regions not specified; also called anti-EGFR antibody; parental arm antibody

Source: US20140155581A1 (AstraZeneca / MedImmune, published 2014)
